Measurements from PMC8194188, “Kinetic modeling of phosphorylase-catalyzed iterative β-1,4-glycosylation for degree of polymerization-controlled synthesis of soluble cello-oligosaccharides” (Biotechnology for Biofuels, 2021).

Substrate: O=P(O)(O)O[C@H]1O[C@H](CO)[C@@H](O)[C@H](O)[C@H]1O
Test: initial rates from phosphate release, Michaelis-Menten fit
Format: biochemical, [Clostridium] cellulosi
Conditions: 100 mM cellobiose (saturating), 50 mM MES pH 7.0, 45 °C, synthesis direction

B1: CcCdP (cellodextrin phosphorylase from Clostridium cellulosi) ([Clostridium] cellulosi) (protein)
chain: MITKVTPRSCKLTPFEILKQKFGSIIAMSGCADAIYSDSSCKNVIGITGLPIKAPVIQVLLENSKLAAFLNEYVQNKSVCLALEGMRYCLVFEDGQKVKLPQELDDIIQSTVSDVKNWAGTLTENGEHVIDLKKPSPGPHFYVNLLIGNRLGFNRTLQTTPKSVVDRFGRGSFRSHAATQVLATRYDMRQEENGFPANRQFYLYENGKQIFYSGSVDDDNILEAKCIHSCNRTVIKYKTACKLEITRTIFLCPQKKGLPLATEIQIINIKNNSERKRNLSITYTGMFGTAATHAIFEDVTYTNVIMQSAALYNDNGEFIGITPDYYRKKYNEDTRFVTMFVRKDGKRIFPKSFCTDYNDFVGNGTLEHPAGGEHLNNKLNRKGPGFFALGTPFTIMPGQDIEIDTFTGMSSSKDNPNYDDTTMPKELEALLRYFEASDSVQSALREVIDFQEKYCKYIEFKTEDKMFNAGFNKNLAFQILYQTFMSRSFCQTQKGYREIGFREIQDLYASMYYFINLGYQDFVKNLLFEWTSNVYKMGYANHNFYWVGKQPGLYSDDSLWLLQAYYRYIIYTKDTSILNEEVPVADGNNEKRAVRDTLKAIIQYSAFISVGNHGLPLLDLADWNDCLKIDNDYVDGAQKEKLYYKQLKETGGKYGDRFMSDYSESVMNAFLLKVAVDDLAEIAELDKDAELEQSMRKISSALSEKIQKYAWKGNFFARVLLNRYKDGSFTYIGAKGDKLSADPNIDGTYFLNSFSWAILSGVATDEQIGIMVDTLKKYMLTPYGIRLTTPADLNKLANDTATDHYFYGDRENGAVFKHASMMATAALAKAAKSVKDKALAKEMARLAYYMIDLVLPYKNLEDPFKLAGNPRICTQYINADSGENIGPLLSGTATWLNLTITSLAGIEYVKDGIMFSPVLREDETRLEYSLKAPGCSYNITITKPRGFARLIDSAYDLRIDGKKTDNCIIPMFTDGKEHSVTLEFK
notes: N-terminally His-tagged, recombinant, purified
B1 gave a Km of 0.47 ± 0.24 mM.
